Tests used:
wild-type rats = test: Immunohistochemistry of Naglu protein in brain tissue after intrathecal administration; assay type: in vivo
Procedure: To evaluate biodistribution of the SORT1-binding Naglu fusion proteins, an in vivo study was conducted using wild-type rats subjected to intrathecal administration of vehicle control (PBS), rhNaglu, Naglu-IGFII, Naglu-SPP, Naglu-SapDC or Naglu-tPRGN. Details of the experimental design are provide in Table 9 below. Previous experiments had shown that Naglu-IGFII but not rhNaglu penetrates into brain tissue and is targeted to lysosomes after intrathecal injection. Accordingly, rhNaglu and Naglu-IGFII were utilized in this study as negative and positive controls, respectively.
Rats were sacrificed either 4 or 24 hours post intrathecal administration of the respective fusion protein. Brain tissue samples were collected, fixed in 10% NBF and processed for paraffin embedding. 5 μm paraffin sections from each tissue assayed were subjected to immunostaining using an anti-human Naglu antibody.

[1] = test system: SORT1 overexpressing cells; test: Cellular uptake in Sortilin overexpressing cells (intracellular Naglu enzyme activity); assay type: cell-based; details: absence of Neurotensin
Procedure: A cell line was established overexpressing SORT1, using standard technologies known in the art. […] After a specified period of time, the supernatant was removed and the cells were washed repeatedly. Then, cells were lysed and each sample was assayed for Naglu enzyme activity.

Naglu KO mice [2] = test: Immunohistochemical staining of Lamp-1, GFAP and Iba-1 in brain and liver; assay type: in vivo; details: intrathecal
Procedure: (§1) To evaluate the in vivo activity of Naglu-SPP and its efficacy as a therapeutic for the treatment of lysosomal storage diseases, particularly San B, Naglu-SPP was administered to Naglu KO mice via intrathecal injection. Intrathecal administration of Naglu-IGFII served as a positive control. The experimental conditions used for this assay are described in Tables 10 and 11 below.
The lysosomal targeting of Naglu-SPP and Naglu-IGFII was further examined by immunohistochemical analysis. Tissue samples were collected, fixed in 10% NBF and processed for paraffin embedding. For each tissue assayed, 5 μm paraffin sections was subjected to immunostaining using antibodies against lamp lysosomal associated membrane protein 1 (Lamp-1), glial fibrillary acidic protein (GFAP) and the ionized calcium-binding adapter molecule 1 (Iba-1).

Naglu KO mice [3] = test: Heparan sulfate in brain by LC/MS; assay type: in vivo; details: intrathecal, 520 mg/kg brain, 2× weekly and 3× weekly
Procedure: as §1
In a second assay, we evaluation the total amount of heparan sulfate in the brain of treated KO mice. […] To measure heparan sulfate in mouse brain tissue, a highly sensitive LC/MS method was applied (Lawrence et al, 2012, Nat Chem Biol. 2012 Jan. 8; 8(2):197-204). Briefly, total GAG from brain tissue was extracted by a DEAE column and a desalting column, and then dried and weighted. The extracted GAG was treated with heparin lyases that specifically release unique mono, di and tri saccharides of heparan sulfate, and the sample was then analyzed by LC/MS. The released saccharides were identified and quantified using commercially available saccharide standards of heparan sulfate degradation.

Naglu KO mice [4] = test: Total glycosaminoglycan (GAG) in liver and brain, dimethylmethylene blue; assay type: in vivo; details: intrathecal, 520 mg/kg brain; brain significant in 2× and 3× weekly groups
Procedure: as §1
The activity of Naglu-SPP and Naglu-IGFII in vivo was also evaluated by examining the intracellular accumulation of natural substrates of Naglu in treated mice. One such assay was designed to evaluate the total concentration of glycosaminoglycan (GAG) in liver (FIG. 11A) and brain (FIG. 11B) tissue of treated mice in accordance with de Jong et al. (Clin Chem 38(6):803-807, 1992). Briefly, liver tissue was homogenized and total GAG quantified using dimethylmethylene blue. Brain tissue was homogenized and then incubated with pronase and benzonase to break down protein and nucleic acid. Total GAG was then extracted by passing the brain homogenate through a DEAE column. The eluate was further buffer exchanged through a desalting column, and the total GAG content was quantified using dimethylmethylene blue. […] The reduction of total GAG amount in brain tissue was significant in the 2× weekly as well as the 3× weekly treatment groups.

[5] = test system: SORT overexpressing cells; test: Immunofluorescence microscopy of cellular entry and lysosomal targeting (Naglu / Lamp-1); assay type: cell-based
Procedure: Studies were carried out using immunofluorescence microscopy to evaluate cellular entry and lysosomal targeting. For these studies, SORT overexpressing cells were treated with vehicle control or Naglu-SPP and then fixed and prepared for staining. Both vehicle control (FIG. 6A) and Naglu-SPP (FIG. 6B) treated cells were stained using antibodies specific for human Naglu and Lamp-1, a lysosome-specific protein biomarker.

B1: Naglu-SPP: Fusion protein of human Naglu and SORT1 propeptide (SPP) via GAG3 linker; SEQ ID NO:17 (full-length), SEQ ID NO:22 (protein)
chain: MEAVAVAAAVGVLLLAGAGGAAGDEAREAAAVRALVARLLGPGPAADFSVSVERALAAKPGLDTYSLGGGGAARVRVRGSTGVAAAAGLHRYLRDFCGCHVAWSGSQLRLPRPLPAVPGELTEATPNRYRYYQNVCTQSYSFVWWDWARWEREIDWMALNGINLALAWSGQEAIWQRVYLALGLTQAEINEFFTGPAFLAWGRMGNLHTWDGPLPPSWHIKQLYLQHRVLDQMRSFGMTPVLPAFAGHVPEAVTRVFPQVNVTKMGSWGHFNCSYSCSFLLAPEDPIFPIIGSLFLRELIKEFGTDHIYGADTFNEMQPPSSEPSYLAAATTAVYEAMTAVDTEAVWLLQGWLFQHQPQFWGPAQIRAVLGAVPRGRLLVLDLFAESQPVYTRTASFQGQPFIWCMLHNFGGNHGLFGALEAVNGGPEAARLFPNSTMVGTGMAPEGISQNEVVYSLMAELGWRKDPVPDLAAWVTSFAARRYGVSHPDAGAAWRLLLRSVYNCSGEACRGHNRSPLVRRPSLQMNTSIWYNRSDVFEAWRLLLTSAPSLATSPAFRYDLLDLTRQAVQELVSLYYEEARSAYLSKELASLLRAGGVLAYELLPALDEVLASDSRFLLGSWLEQARAAAVSEAEADFYEQNSRYQLTLWGPEGNILDYANKQLAGLVANYYTPRWRLFLEALVDSVAQGIPFQQHQFDKNVFQLEQAFVLSKQRYPSQPRGDTVDLAKKIFLKYYPRWVAGSWGAPGGGGGAAAAAGGGGGGAPGGGGGAAAAAGGGGGGAPGGGGGAAAAAGGGGGGAPQDRLDAPPPPAAPLPRWSGPIGVSWGLRAAAAGGAFPRGGRWRR
Naglu immunostaining in cerebral cortex / brain parenchyma (wild-type rats; 4 and 24 hours post treatment): positive staining | Naglu immunostaining in cerebellum and hippocampal region (wild-type rats; 24 hours post injection): strong Naglu signal | Bmax of binding/uptake [1]: 1260 nmol/h/mg | cellular internalization (intracellular Naglu activity) [1]: effectively internalized | Lamp-1 immunostaining in brain (cerebral cortex, cerebellum, thalamus, striatum, white matter) (Naglu KO mice [2]; 2× weekly and 3× weekly): decrease | Lamp-1 immunoreactivity in liver (Naglu KO mice [2]; three weekly deliveries): reduced significantly | GFAP staining in cerebral cortex and cerebellum (astrocytes) (Naglu KO mice [2]; three weekly injections): reduced signal | Iba-1 staining in cerebral cortex and cerebellum (microglial cells) (Naglu KO mice [2]; three weekly injections): microglial cells are reduced in size and have a smaller number of processes | total amount of heparan sulfate accumulation in brain tissue (Naglu KO mice [3]): strong reduction | total GAG concentration in liver and brain tissue vs vehicle control (Naglu KO mice [4]): significant reduction | intracellular localization of Naglu fluorescence (co-localization with Lamp-1) [5]: localized predominantly within lysosomal vesicles
